Numbering of substitutions follows the chain as printed. Read-outs that look alike come from different tables or passages of the source. Values belong to the binder of their own block, whether it stands above or below them.
Tests used:
[1] = molecular target: T1, human CTLA4 expressed on Jurkat T cells (human, UniProt P16410 36-223); test: cell-based or functional assay
[2] = molecular target: T2, CTLA4-ECD_Fc, soluble hCTLA4 comprising the extracellular domain of hCTLA4 fused to an Fc fragment (human, UniProt P16410 36-161); test: flow cytometry; inhibition of CTLA4-ECD_Fc binding to Raji cells (hB7-1/hB7-2)
T2 construct: extracellular domain; not shown: Fc fragment
Procedure: In a first assay, inhibition of hCTLA4 binding to hB7-1 and hB7-2 expressed on the surface of Raji cells was assessed. Raji cells, which are human cells, express high levels of hB7-1 and hB7-2. […] After 30 minutes, 1×10⁵ Raji cells were added to each well and incubated for another 30 minutes. […] IC₅₀'s were calculated using GraphPad Prism software (GraphPad, Inc., La Jolla, Calif., USA).

[3] = molecular target: T1, human CTLA4 expressed on Jurkat T cells; test: flow cytometry on Jurkat T cells expressing hCTLA4
Description: After washing, the surface-bound anti-hCTLA4 antibodies were detected with a polyclonal anti-hlgG (Fc-specific) antibody labeled with fluorescein isothiocyanate (FITC)(anti-hlgG-FITC). Binding of anti-hCTLA4 antibodies were detected by flow cytometric analysis. The results were reported a geometric mean fluorescence intensity (MFI) using FlowJo software (FLOWJO, L.L.C., Ashland, Oreg., USA).

[4] = molecular target: T1, human CTLA4 expressed on Jurkat T cells; test: cell-based or functional assay; remark: listed apart in the source
[5] = molecular target: T1, human CTLA4 expressed on Jurkat T cells; test: cell-based or functional assay; remark: listed apart in the source

T1 sequence (P16410 36-223): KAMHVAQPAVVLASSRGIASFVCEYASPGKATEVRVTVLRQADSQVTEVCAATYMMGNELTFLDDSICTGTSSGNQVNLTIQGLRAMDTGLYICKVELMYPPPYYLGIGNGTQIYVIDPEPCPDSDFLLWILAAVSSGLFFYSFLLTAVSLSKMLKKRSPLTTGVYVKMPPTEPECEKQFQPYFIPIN
T2 sequence (P16410 36-161): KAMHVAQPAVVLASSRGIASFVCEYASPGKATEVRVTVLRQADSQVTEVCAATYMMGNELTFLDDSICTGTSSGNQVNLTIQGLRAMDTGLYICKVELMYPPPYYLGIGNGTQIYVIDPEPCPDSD

IC50, luciferase (RLU), CTLA4 Dual-Cell Reporter Assay (Jurkat cells with hCTLA4 plus Raji cells) [1]: 6.12 nM
IC50 [2]: 3.3 nM
EC50 [3]: 0.085 nM
IC50, luciferase reporter assay (Jurkat cells with CTLA4 plus Raji cells with hCD80 and hCD86) [4]: 2.12 nM
B1: anti-hCTLA4 antibody 10D4 (antibody, human IgG1, V domains shown)
VH: QVQLVESGGGVVEPGRSLRLSCTASGFTFSSYGMHWVRQAPGKGLEWVAVIWYHPSKKDYADSAKGRFTISRDNSKNTLYLQMNSLRAEDTAVYYCARAGLLGYFDYWGQGTLVTVSS
VL: EIVLTQSPGTLSLSPGERATLSCRASQSVTSYLAWYQQKPGQAPRPLIYGVSSRATGIPDRFSGSGSGTDFTLTISRLEPEDFAVYYCQQYGRYPFTFGPGTKVDIK
notes: unaltered form; also called Anti-CTLA4 10D4; anti-hCTLA4 #10D4

IC50, luciferase reporter assay (Jurkat cells with CTLA4 plus Raji cells with hCD80 and hCD86) [5]: 8.68 nM
B2: altered anti-hCTLA4 11F4 (antibody, human IgG1, kappa, V domains shown)
VH: B1 VH with T23A, G44R, H54K, K57E, A99G, Q110D
VL: EIVLTQSPGTLSLSPGERATLSCRASQSINSYLAWYQQKPGQRPRPLIYGVSSRATGIPDRFSGSGSGTDFTLTISRLEPEDFAVYYCQQYGRYPFTFGDGTKVDIKR

IC50, luciferase (RLU), CTLA4 Dual-Cell Reporter Assay (Jurkat cells with hCTLA4 plus Raji cells) [1]: 7.39 nM
IC50 [2]: 7.5 nM
IC50, luciferase reporter assay (Jurkat cells with CTLA4 plus Raji cells with hCD80 and hCD86) [5]: 4.8 nM
EC50 [3]: 0.158 nM
B3: anti-hCTLA4 antibody 11F4 (antibody, human IgG1, V domains shown)
VH: B1 VH with T23A, H54K, K57E, A99G
VL: B1 VL with V29I, T30N
notes: unaltered form; also called Anti-CTLA4 11F4; anti-hCTLA4 #11F4
